Residue numbers refer to the chain shown, from its start.

Holding throughout (assay): SPR, KD relative to WT C2;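 note: biacore SPR at 37 °C, anti-C2 mAbs captured on anti-human IgG chips with alanine or serine point mutants of C2 as analyte, KD from 1:1 fit compared with wild-type C2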
In one assay the target is T1, human C2 G414A (human, UniProt P06681 21-752).
T1 sequence: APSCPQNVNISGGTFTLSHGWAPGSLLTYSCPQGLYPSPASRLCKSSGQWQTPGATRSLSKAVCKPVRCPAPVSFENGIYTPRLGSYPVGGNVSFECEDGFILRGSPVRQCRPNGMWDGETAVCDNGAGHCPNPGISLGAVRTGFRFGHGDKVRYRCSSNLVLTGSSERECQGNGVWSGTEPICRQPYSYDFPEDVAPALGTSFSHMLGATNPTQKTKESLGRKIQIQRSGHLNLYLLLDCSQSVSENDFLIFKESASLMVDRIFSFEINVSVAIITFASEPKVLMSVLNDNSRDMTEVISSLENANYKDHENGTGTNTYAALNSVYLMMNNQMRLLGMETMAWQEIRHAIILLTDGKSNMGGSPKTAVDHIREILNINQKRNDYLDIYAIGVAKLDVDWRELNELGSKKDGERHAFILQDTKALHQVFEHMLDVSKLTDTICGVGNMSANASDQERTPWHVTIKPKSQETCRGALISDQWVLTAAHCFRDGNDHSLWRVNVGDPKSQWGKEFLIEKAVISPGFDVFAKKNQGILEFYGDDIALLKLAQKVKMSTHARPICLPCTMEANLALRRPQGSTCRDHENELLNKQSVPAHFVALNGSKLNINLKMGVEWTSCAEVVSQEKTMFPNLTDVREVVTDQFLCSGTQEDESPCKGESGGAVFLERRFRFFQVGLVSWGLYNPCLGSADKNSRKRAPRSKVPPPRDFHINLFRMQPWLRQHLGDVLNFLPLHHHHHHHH

Another assay has as its target T2, human C2 D431A (human, UniProt P06681 21-752).
T2 sequence: T1 sequence with A394G, D411A

The target of the next assay is T3, human C2 H331A (human, UniProt P06681 21-752).
T3 sequence: T1 sequence with H311A, A394G

The target in a further assay is T4, human C2 M452A (human, UniProt P06681 21-752).
T4 sequence: T1 sequence with A394G, M432A

B1: RF16-242 (antibody, human IgG4 S228P, lambda, V domains shown)
VH: EVQLLQSGAEVKKPGESLKISCKGSGYSFTSYWIGWVRQMPGKGLEWMGIIYPGDSDTRYSPSFQGQVTISADKSISTAYLQWSSLKASDTAMYYCARRGHYGDYFDYWGQGTLVTVSS
VL: SYELTQPPSVSVSPGQTARITCSGDALPKKYAYWYHQKSGQAPVLVIYEDRRRPSEIPERFSGSSSGTMATLTITGAQVEDEGVYFCYSRDRAGNQRVFGGGTQLTVLG
notes: pH-dependent anti-C2 antibody from a phage display library
As to B1, the Fold diff with human C2 G414A is 1 fold; with human C2 D431A it was 3 fold; in the assay with human C2 H331A, 27 fold; with human C2 M452A it was 1 fold.

The record behind these values is patent US20220332804A1 (CSL INNOVATION, published 2022).
